How the values were obtained:
Assay in all cases: iTopia peptide binding assay
[1] = target: T1, MHC class I allele A*0101 (bound via biotin to streptavidin-coated plate)
T1 construct: iTopia MHC class I monomer on the plate; placeholder peptide and b2M removed, then reconstituted with test peptide and fresh b2M; also called A1; HLA A1
Experimental: (§1) The 9 mers were tested for Peptide Binding, Off Rate and Affinity using iTopia Epitope Discovery System in accordance with the manufacturer's instructions. Briefly, 96 well microtitre plates coated with MHC molecules representing different MHC alleles are used to identify candidate peptides. […] Determinations are performed in duplicate using an ELISA plate reader and included allele specific positive controls.
(§2) i) Peptide Binding—This assay measures the ability of individual peptides to bind to the MHC molecules under standardized optimal binding conditions. The assay is performed for all the test peptides across the selected MHC alleles. The test peptides identified as “binders” are characterized further in terms of affinity and dissociation experiments.

[2] = target: T2, MHC class I allele B*0702 (bound via biotin to streptavidin-coated plate)
T2 construct: iTopia MHC class I monomer on the plate; placeholder peptide and b2M removed, then reconstituted with test peptide and fresh b2M; also called B7; HLA B7
Experimental: as §1, §2

[3] = target: T3, MHC class I allele A*0201 (bound via biotin to streptavidin-coated plate)
T3 construct: iTopia MHC class I monomer on the plate; placeholder peptide and b2M removed, then reconstituted with test peptide and fresh b2M; also called A2; HLA A2
Experimental: as §1, §2

[4] = target: T4, MHC class I allele A*0301 (bound via biotin to streptavidin-coated plate)
T4 construct: iTopia MHC class I monomer on the plate; placeholder peptide and b2M removed, then reconstituted with test peptide and fresh b2M; also called A3; HLA A3
Experimental: as §1, §2

GAFARRPPL (also called Peptide No 55) [5T4 9 mer peptide 55 GAFARRPPL]
% of positive control peptide binding [1]: 0% | % of positive control peptide binding [2]: 91% | % of positive control peptide binding [3]: 41% | % of positive control peptide binding [4]: 3%

LPSLRQLDL (also called Peptide No 71) [5T4 9 mer peptide 71 LPSLRQLDL]
% of positive control peptide binding [1]: 0% | % of positive control peptide binding [2]: 82% | % of positive control peptide binding [3]: 27% | % of positive control peptide binding [4]: 0%

LPSLRHLDL (also called Peptide No 117) [5T4 9 mer peptide 117 LPSLRHLDL]
% of positive control peptide binding [1]: 0% | % of positive control peptide binding [2]: 96% | % of positive control peptide binding [3]: 16% | % of positive control peptide binding [4]: 1%

APFLASAVS (also called Peptide No 23) [5T4 9 mer peptide 23 APFLASAVS]
% of positive control peptide binding [1]: 1% | % of positive control peptide binding [2]: 37% | % of positive control peptide binding [3]: 15% | % of positive control peptide binding [4]: 0%

RTVKCVNRN (also called Peptide No 37) [5T4 9 mer peptide 37 RTVKCVNRN]
% of positive control peptide binding [1]: 7% | % of positive control peptide binding [2]: 3% | % of positive control peptide binding [3]: 12% | % of positive control peptide binding [4]: 12%

PALCECSEA (also called Peptide No 32) [5T4 9 mer peptide 32 PALCECSEA]
% of positive control peptide binding [1]: 4% | % of positive control peptide binding [2]: 0% | % of positive control peptide binding [3]: 19% | % of positive control peptide binding [4]: 0%

PAAGDGRLR (also called Peptide No 5) [5T4 9 mer peptide 5 PAAGDGRLR]
% of positive control peptide binding [1]: 4% | % of positive control peptide binding [2]: 5% | % of positive control peptide binding [3]: 5% | % of positive control peptide binding [4]: 4%

RLRLARLAL (also called Peptide No 8) [5T4 9 mer peptide 8 RLRLARLAL]
% of positive control peptide binding [1]: 3% | % of positive control peptide binding [2]: 46% | % of positive control peptide binding [4]: 43%

AFEHLPSLR (also called Peptide No 69) [5T4 9 mer peptide 69 AFEHLPSLR]
% of positive control peptide binding [1]: 1% | % of positive control peptide binding [2]: 0% | % of positive control peptide binding [3]: 11% | % of positive control peptide binding [4]: 11%

PDQCPALCE (also called Peptide No 30) [5T4 9 mer peptide 30 PDQCPALCE]
% of positive control peptide binding [1]: 5% | % of positive control peptide binding [2]: 1% | % of positive control peptide binding [3]: 3% | % of positive control peptide binding [4]: 0%

ECSEAARTV (also called Peptide No 34) [5T4 9 mer peptide 34 ECSEAARTV]
% of positive control peptide binding [1]: 2% | % of positive control peptide binding [2]: 0% | % of positive control peptide binding [3]: 4% | % of positive control peptide binding [4]: 0%

MPGGCSRGP (also called Peptide No 1) [5T4 9 mer peptide 1 MPGGCSRGP]
% of positive control peptide binding [1]: 0% | % of positive control peptide binding [2]: 3% | % of positive control peptide binding [3]: 9% | % of positive control peptide binding [4]: 0%

LCECSEAAR (also called Peptide No 33) [5T4 9 mer peptide 33 LCECSEAAR]
% of positive control peptide binding [1]: 3% | % of positive control peptide binding [2]: 0% | % of positive control peptide binding [3]: 6% | % of positive control peptide binding [4]: 0%

LNLSGSRLD (also called Peptide No 62) [5T4 9 mer peptide 62 LNLSGSRLD]
% of positive control peptide binding [1]: 2% | % of positive control peptide binding [2]: 7% | % of positive control peptide binding [3]: 7% | % of positive control peptide binding [4]: 2%

QCPALCECS (also called Peptide No 31) [5T4 9 mer peptide 31 QCPALCECS]
% of positive control peptide binding [1]: 3% | % of positive control peptide binding [2]: 0% | % of positive control peptide binding [3]: 2% | % of positive control peptide binding [4]: 0%

VKCVNRNLT (also called Peptide No 38) [5T4 9 mer peptide 38 VKCVNRNLT]
% of positive control peptide binding [1]: 6% | % of positive control peptide binding [2]: 2% | % of positive control peptide binding [3]: 3% | % of positive control peptide binding [4]: 0%

VPTDLPAYV (also called Peptide No 43) [5T4 9 mer peptide 43 VPTDLPAYV]
% of positive control peptide binding [1]: 33% | % of positive control peptide binding [2]: 11% | % of positive control peptide binding [3]: 29% | % of positive control peptide binding [4]: 0%

ASAVSAQPP (also called Peptide No 25) [5T4 9 mer peptide 25 ASAVSAQPP]
% of positive control peptide binding [1]: 2% | % of positive control peptide binding [2]: 0% | % of positive control peptide binding [3]: 5% | % of positive control peptide binding [4]: 0%

PAGAFARRP (also called Peptide No 54) [5T4 9 mer peptide 54 PAGAFARRP]
% of positive control peptide binding [1]: 2% | % of positive control peptide binding [2]: 7% | % of positive control peptide binding [3]: 4% | % of positive control peptide binding [4]: 3%

NRNLTEVPT (also called Peptide No 40) [5T4 9 mer peptide 40 NRNLTEVPT]
% of positive control peptide binding [1]: 1% | % of positive control peptide binding [2]: 5% | % of positive control peptide binding [3]: 6% | % of positive control peptide binding [4]: 0%

SEAARTVKC (also called Peptide No 35) [5T4 9 mer peptide 35 SEAARTVKC]
% of positive control peptide binding [1]: 5% | % of positive control peptide binding [2]: 0% | % of positive control peptide binding [3]: 1% | % of positive control peptide binding [4]: 0%

LPAYVRNLF (also called Peptide No 45) [5T4 9 mer peptide 45 LPAYVRNLF]
% of positive control peptide binding [1]: 7% | % of positive control peptide binding [2]: 90% | % of positive control peptide binding [3]: 14% | % of positive control peptide binding [4]: 2%

LAELAALNL (also called Peptide No 59) [5T4 9 mer peptide 59 LAELAALNL]
% of positive control peptide binding [1]: 15% | % of positive control peptide binding [2]: 16% | % of positive control peptide binding [3]: 63% | % of positive control peptide binding [4]: 3%

CSRGPAAGD (also called Peptide No 3) [5T4 9 mer peptide 3 CSRGPAAGD]
% of positive control peptide binding [1]: 0% | % of positive control peptide binding [2]: 3% | % of positive control peptide binding [3]: 3% | % of positive control peptide binding [4]: 5%

AGAFEHLPS (also called Peptide No 68) [5T4 9 mer peptide 68 AGAFEHLPS]
% of positive control peptide binding [1]: 6% | % of positive control peptide binding [2]: 7% | % of positive control peptide binding [3]: 10% | % of positive control peptide binding [4]: 3%

TEVPTDLPA (also called Peptide No 42) [5T4 9 mer peptide 42 TEVPTDLPA]
% of positive control peptide binding [1]: 3% | % of positive control peptide binding [2]: 0% | % of positive control peptide binding [3]: 7% | % of positive control peptide binding [4]: 0%

VRNLFLTGN (also called Peptide No 47) [5T4 9 mer peptide 47 VRNLFLTGN]
% of positive control peptide binding [1]: 0% | % of positive control peptide binding [2]: 3% | % of positive control peptide binding [3]: 5% | % of positive control peptide binding [4]: 0%

FLTGNQLAV (also called Peptide No 49) [5T4 9 mer peptide 49 FLTGNQLAV]
% of positive control peptide binding [1]: 4% | % of positive control peptide binding [2]: 6% | % of positive control peptide binding [3]: 90% | % of positive control peptide binding [4]: 3%

PPLAELAAL (also called Peptide No 58) [5T4 9 mer peptide 58 PPLAELAAL]
% of positive control peptide binding [1]: 6% | % of positive control peptide binding [2]: 33% | % of positive control peptide binding [3]: 19% | % of positive control peptide binding [4]: 4%

RLDEVRAGA (also called Peptide No 65) [5T4 9 mer peptide 65 RLDEVRAGA]
% of positive control peptide binding [1]: 4% | % of positive control peptide binding [2]: 32% | % of positive control peptide binding [3]: 69% | % of positive control peptide binding [4]: 17%

QPPLPDQCP (also called Peptide No 28) [5T4 9 mer peptide 28 QPPLPDQCP]
% of positive control peptide binding [1]: 6% | % of positive control peptide binding [2]: 3% | % of positive control peptide binding [3]: 5% | % of positive control peptide binding [4]: 1%

RRPPLAELA (also called Peptide No 57) [5T4 9 mer peptide 57 RRPPLAELA]
% of positive control peptide binding [1]: 2% | % of positive control peptide binding [2]: 9% | % of positive control peptide binding [3]: 11% | % of positive control peptide binding [4]: 2%

DEVRAGAFE (also called Peptide No 66) [5T4 9 mer peptide 66 DEVRAGAFE]
% of positive control peptide binding [1]: 6% | % of positive control peptide binding [2]: 12% | % of positive control peptide binding [3]: 9% | % of positive control peptide binding [4]: 7%

AALNLSGSR (also called Peptide No 61) [5T4 9 mer peptide 61 AALNLSGSR]
% of positive control peptide binding [1]: 3% | % of positive control peptide binding [2]: 3% | % of positive control peptide binding [3]: 6% | % of positive control peptide binding [4]: 13%

SAQPPLPDQ (also called Peptide No 27) [5T4 9 mer peptide 27 SAQPPLPDQ]
% of positive control peptide binding [1]: 2% | % of positive control peptide binding [2]: 3% | % of positive control peptide binding [3]: 13% | % of positive control peptide binding [4]: 0%

TDLPAYVRN (also called Peptide No 44) [5T4 9 mer peptide 44 TDLPAYVRN]
% of positive control peptide binding [1]: 7% | % of positive control peptide binding [2]: 2% | % of positive control peptide binding [3]: 3% | % of positive control peptide binding [4]: 1%
